# According to publication PMC9974095, “TP63 gain-of-function mutations cause premature ovarian insufficiency by inducing oocyte apoptosis” (The Journal of Clinical Investigation, 2023):
# Numbering of substitutions follows the chain as printed. Names and notes keep the numbering of the source. Values joined by “and” are separate entries in the source; they are usually repeats but may differ in a detail not shown here. Identical values can stand only once.
# B1: mouse p63ΔTID (domain or fragment, UniProt O88898-1 1-609, looked up)
# chain: MNFETSRCATLQYCPDPYIQRFIETPAHFSWKESYYRSAMSQSTQTSEFLSPEVFQHIWDFLEQPICSVQPIELNFVDEPSENGATNKIEISMDCIRMQDSDLSDPMWPQYTNLGLLNSMDQQIQNGSSSTSPYNTDHAQNSVTAPSPYAQPSSTFDALSPSPAIPSNTDYPGPHSFDVSFQQSSTAKSATWTYSTELKKLYCQIAKTCPIQIKVMTPPPQGAVIRAMPVYKKAEHVTEVVKRCPNHELSREFNEGQIAPPSHLIRVEGNSHAQYVEDPITGRQSVLVPYEPPQVGTEFTTVLYNFMCNSSCVGGMNRRPILIIVTLETRDGQVLGRRCFEARICACPGRDRKADEDSIRKQQVSDSAKNGDGTKRPFRQNTHGIQMTSIKKRRSPDDELLYLPVRGRETYEMLLKIKESLELMQYLPQHTIETYRQQQQQQHQHLLQKQTSMQSQSSYGNSSPPLNKMNSMNKLPSVSQLINPQQRNALTPTTMPEGMGANIPMMGTHMPMAGDMNGLSPTQALPPPLSMPSTSHCTPPPPYPTDCSIVSFLARLGCSSCLDYFTTQGLTTIYQIEHYSMDDLASLKIPEQFRHAIWKGILDHRQLHD
# notes: mouse p63 (TAp63α) without the TID; the mouse allele of the same name carries c.1828_1829insGA (p.F610*, NM_001127259.1), a stop codon prior to the TID; also called mutant p63ΔTID
# B2: TAp63α p.R594* (domain or fragment, human, UniProt Q9H3D4-1 1-593, looked up)
# chain: MNFETSRCATLQYCPDPYIQRFVETPAHFSWKESYYRSTMSQSTQTNEFLSPEVFQHIWDFLEQPICSVQPIDLNFVDEPSEDGATNKIEISMDCIRMQDSDLSDPMWPQYTNLGLLNSMDQQIQNGSSSTSPYNTDHAQNSVTAPSPYAQPSSTFDALSPSPAIPSNTDYPGPHSFDVSFQQSSTAKSATWTYSTELKKLYCQIAKTCPIQIKVMTPPPQGAVIRAMPVYKKAEHVTEVVKRCPNHELSREFNEGQIAPPSHLIRVEGNSHAQYVEDPITGRQSVLVPYEPPQVGTEFTTVLYNFMCNSSCVGGMNRRPILIIVTLETRDGQVLGRRCFEARICACPGRDRKADEDSIRKQQVSDSTKNGDGTKRPFRQNTHGIQMTSIKKRRSPDDELLYLPVRGRETYEMLLKIKESLELMQYLPQHTIETYRQQQQQQHQHLLQKQTSIQSPSSYGNSSPPLNKMNSMNKLPSVSQLINPQQRNALTPTTIPDGMGANIPMMGTHMPMAGDMNGLSPTQALPPPLSMPSTSHCTPPPPYPTDCSIVSFLARLGCSSCLDYFTTQGLTTIYQIEHYSMDDLASLKIPEQF
# notes: human TAp63α with the nonsense variant p.R594* (stop at codon 594, in the SAM domain; truncates the protein prior to the TID), numbered on NM_003722.5; Nonsense variant found in a patient with POI; lacks the TID; source: SAOS-2, transfected, MG132-treated, in lysate
# B3: TAp63α (human TP63), wild type (natural protein, UniProt Q9H3D4-1 1-680, looked up)
# chain: MNFETSRCATLQYCPDPYIQRFVETPAHFSWKESYYRSTMSQSTQTNEFLSPEVFQHIWDFLEQPICSVQPIDLNFVDEPSEDGATNKIEISMDCIRMQDSDLSDPMWPQYTNLGLLNSMDQQIQNGSSSTSPYNTDHAQNSVTAPSPYAQPSSTFDALSPSPAIPSNTDYPGPHSFDVSFQQSSTAKSATWTYSTELKKLYCQIAKTCPIQIKVMTPPPQGAVIRAMPVYKKAEHVTEVVKRCPNHELSREFNEGQIAPPSHLIRVEGNSHAQYVEDPITGRQSVLVPYEPPQVGTEFTTVLYNFMCNSSCVGGMNRRPILIIVTLETRDGQVLGRRCFEARICACPGRDRKADEDSIRKQQVSDSTKNGDGTKRPFRQNTHGIQMTSIKKRRSPDDELLYLPVRGRETYEMLLKIKESLELMQYLPQHTIETYRQQQQQQHQHLLQKQTSIQSPSSYGNSSPPLNKMNSMNKLPSVSQLINPQQRNALTPTTIPDGMGANIPMMGTHMPMAGDMNGLSPTQALPPPLSMPSTSHCTPPPPYPTDCSIVSFLARLGCSSCLDYFTTQGLTTIYQIEHYSMDDLASLKIPEQFRHAIWKGILDHRQLHEFSSPSHLLRTPSSASTVSVGSSETRGERVIDAVRFTLRQTISFPPRDEWNDFNFDMDARRNKQQRIKEEGE
# notes: human p63, isoform TAp63α; variants are numbered on NM_003722.5; also called WT TAp63α; source: SAOS-2, transfected (pcDNA3.1-TP63), MG132-treated, in lysate
# B4: TAp63α p.T538A (natural protein, human, UniProt Q9H3D4-1 1-680, looked up)
# chain: B3 chain with T538A
# notes: human TAp63α with the patient variant p.T538A, numbered on NM_003722.5; made from pcDNA3.1-TP63 by site-directed mutagenesis; Variant found in a patient with POI; source: SAOS-2, transfected, MG132-treated, in lysate
# B5: TAp63α p.S285N (natural protein, human, UniProt Q9H3D4-1 1-680, looked up)
# chain: B3 chain with S285N
# notes: made from pcDNA3.1-TP63 by site-directed mutagenesis; Variant found in a patient with POI; source: SAOS-2, transfected, MG132-treated, in lysate
# B6: TAp63α p.R655Q (natural protein, human, UniProt Q9H3D4-1 1-680, looked up)
# chain: B3 chain with R655Q
# notes: Variant found in a patient with POI; source: SAOS-2, transfected, MG132-treated, in lysate
# B7: TAp63α p.R643Q (natural protein, human, UniProt Q9H3D4-1 1-680, looked up)
# chain: B3 chain with R643Q
# notes: as for B6
# B8: TAp63α p.L646P (natural protein, human, UniProt Q9H3D4-1 1-680, looked up)
# chain: B3 chain with L646P
# notes: as for B6
# B9: TAp63α p.R647C (natural protein, human, UniProt Q9H3D4-1 1-680, looked up)
# chain: B3 chain with R647C
# notes: Variant found in three patients with POI; source: SAOS-2, transfected, MG132-treated, in lysate
# B10: TAp63α p.T567I (natural protein, human, UniProt Q9H3D4-1 1-680, looked up)
# chain: B3 chain with T567I
# notes: human TAp63α with the patient variant p.T567I (SAM domain), numbered on NM_003722.5; made from pcDNA3.1-TP63 by site-directed mutagenesis; Variant found in a patient with POI; source: SAOS-2, transfected, MG132-treated, in lysate
# Biological target: TAp63α p.Q568fs*3 (human) (UniProt Q9H3D4)
# Assay: native gel or EMSA; BN-PAGE (NativePAGE 3%-12% Bis-Tris) of lysates of transfected SAOS-2 cells treated with 10 uM MG132 for 12 h; blot with anti-p63
# Settings: not given
row,Molecule,stoichiometry N
1,TAp63α p.Q568fs*3 (from UniProt Q9H3D4-1 1-567) (domain or fragment),4

# Biological target: TAp63αΔTID
# Assay: co-IP (anti-p63 IP, GFP Western blot, quantified)
# Settings: HEK293 cells cotransfected with TAp63αΔTID and GFP-TID plasmids; 3 independent experiments; parent: est. 6.4; read off a plot
row,Molecule,response
1,"GFP-TID, wild type R647C",3.5 % Input
2,"GFP-TID, wild type R655Q",2.8 % Input
3,"GFP-TID, wild type R643Q",2.4 % Input
4,"GFP-TID, wild type L646P",0.58 % Input

# Biological target: the molecule itself
# Assay: native gel or EMSA; BN-PAGE (NativePAGE 3%-12% Bis-Tris) of lysates of transfected SAOS-2 cells treated with 10 uM MG132 for 12 h; blot with anti-p63
# Settings: not given
row,Molecule,stoichiometry N
1,B1,4
2,B2,4
3,B3,2
4,B4,2
5,B5,2
6,B6,4 and 2
7,B7,4
8,B8,4
9,B9,4
10,B10,2
